This is an account of results in patent publication US8362216B2, “Method of detection using antibodies that specifically bind hedgehog-derived polypeptides” (The Johns Hopkins University School of Medicine, priority 1994, dated 2013).

One test concerns cholesterol biosynthesis. Nature of the test: Sterol analysis by HPLC of COS-7 cells metabolically labelled with [3H]-mevalonic acid. The class given is cell-based, green monkey. Conditions: 28 mM jervine. The protocol:
Given the structural similarities of these compounds to cholesterol and the similar teratogenic effects of cholesterol synthesis inhibitors upon the offspring of pregnant rats, a reasonable mechanism to consider for the effects of these plant sterol derivatives was the inhibition of cholesterol biosynthesis. Accordingly, COST cultured cells treated with jervine were tested for defects in cholesterol biosynthesis by labelling with [3H]-mevalonic acid and then extracting and analyzing radiolabeled, non-saponifiable lipids.
Metabolic labeling and sterol analysis was essentially as described (Popjak et al. J. Biol. Chem. 264: 630-6238.1989; Rilling et al. 1993 Arch. Biochem. Biophys. 301: 210-215.), with minor modifications. Briefly, COS-7 cells were plated at ˜35% confluence into two 60 mm dishes at 37° C. in 4 ml each of Dulbecco's modified Eagle's medium (DMEM) supplemented with 10% fetal bovine serum (FBS). After 24 hr of growth the medium in each dish was replaced with 2 ml fresh medium with 10% FBS; [^3H]-mevalonic acid (NEN #NET 176) brought to a specific activity of 0.8 Ci/mmol in a 1% solution of bovine serum albumin was added to this medium to a final concentration of […]. At this time, one dish received […] of a 4 mg/ml solution of jervine in ethanol (final concentration 28 mM jervine), and the other received […] of ethanol. After 24 hr further incubation, cells were washed in PBS, extracted with methanol, and 1 M potassium hydroxide (KOH) added to 10%. Following a three hour incubation at 60° C., the methanol/KOH mixture was extracted with diethyl ether, the extract dried down, resuspended in isopropanol, and subjected to reverse phase HPLC analysis by the method of Rodriguez and Parks (Methods in Enzymology 111: 37-51 1985).

The target of another test is His6Hh-C protein (Drosophila melanogaster, UniProt Q02936, DEL89-254). Description: In vitro autocleavage reaction of bacterially expressed His6Hh-C protein (DTT / lipid stimulation). Conditions: lipid added with 1 mM DTT (cholesterol 0.35 mM).
Sequence of His6Hh-C protein (Q02936 other isoform, or with tags, fused parts or gaps DEL89-254): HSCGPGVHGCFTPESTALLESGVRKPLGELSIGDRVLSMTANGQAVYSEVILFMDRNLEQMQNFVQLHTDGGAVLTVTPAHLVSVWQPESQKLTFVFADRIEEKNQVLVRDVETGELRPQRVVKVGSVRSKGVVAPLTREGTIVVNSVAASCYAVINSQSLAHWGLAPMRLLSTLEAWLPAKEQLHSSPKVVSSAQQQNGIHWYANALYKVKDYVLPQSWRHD
Test [1] is described as follows: Heparin agarose binding of in vitro translated Hh protein species. The note with it: wash with 0.1% Triton X-100 and 150 mM NaCl. More on the design: species or system Drosophila. As to the method: In vitro translations were performed with the use of the TNT coupled transcription-translation system (Promega). ^35S methionine (DuPont NEN) was used for detection by autoradiography. […] Samples were incubated at 4° C. for four hours with gentle rocking. After pelleting the beads, supernatants in some samples were analyzed (lanes 2 and 4). The beads were then washed 5 times with chilled HBB and samples (lanes 3 and 5) were subsequently eluted at 80° C. for 10 minutes in SDS PAGE loading buffer (F. M. Ausubel et al., supra).
One possible explanation for this differential behavior might be association of the N fragment with extracellular matrix proteins on the surfaces of the S2 cells. Accordingly, the relative affinity of these two proteins for heparin agarose was examined, since heparin binding is a common property of proteins that associate with the extracellular matrix. Given the obvious difficulty in obtaining soluble N from cultured cells, in vitro translation in the presence of microsomes was used to generate soluble, labelled N and C. […] Furthermore, N but not C was retained upon the heparin agarose beads upon extensive washing with a solution that contains 0.1% Triton X-100 and 150 mM NaCl; in contrast, neither fragment was retained by unmodified agarose. […]

The test system of test [2] is pax-2 and pax-6 expression. Description: Ectopic expression of twhh derivatives by mRNA injection into zebrafish embryos. Conditions: mRNA injected embryos. The class given is in vivo. As to the method: To gain insight into the potential roles of hh products in development, synthetic twhh and shh mRNA was injected into 1-8 cell embryos. This technique yields a mosaic but fairly uniform pattern of expression, as determined for the control mRNA encoding β-galactosidase (not shown). Uniformity of expression is in good agreement with fate mapping studies of the early zebrafish embryo (Kimmel & Warga, supra; Warga & Kimmel, supra; Heide, et al., Science, 265:517-520, 1994), which indicate that blastomeres undergo extensive cell mixing during the cleavages pnor to gastrulation.
Ectopic hh alters the expression of par-2, pax-6, and F-spondin. Zebrafish embryos were injected at the 1-8 cell stage with twhh or shh RNA and the pattern of pax-2, pax-6, or F-spondin expression was examined by whole mount in situ hybridization. […] At embryo stage, the anterior-posterior axis of the optic vesicle corresponds to the future proximal-distal axis of the eye. During the next hour of development, the posterior edge of the optic vesicle will separate from the diencephalon (Schmitt and Dowling, Comp. Neur., 344:532-542. 1994).
17(a) Cartoons of various twhh open reading frames. SS (shaded) is the predicted N-terminal signal sequence for secretion of these proteins and encompasses the first 27 amino acids of each open reading frame. The arrow indicates the predicted internal site of auto-proteolytic cleavage. Amino acid residue numbers are according to FIG. 13b. The filled triangle denotes the normal termination codon for the twhh open reading frame. Construct UHA contains a mutation that blocks auto-proteolysis (the histidine at residue 273 is changed to an alanine; see Lee, J. J., et al, supra.). Construct U356HA contains a stop codon in place of amino acid residue 357 as well as the H273A mutation in UHA. Construct N encodes just the first 200 amino acids of twhh. Construct C has had the codons for residues 31-197 deleted. […] Constructs were translated in vitro in the presence of ^35S methionine and analyzed by autoradiography after SDS-PAGE. The protein products are shown schematically to the left. […]

Another test has as its system Hh autoprocessing. Description: In vitro autocleavage assays of site-directed mutant His6Hh-C proteins. The note with it: 6 hours at 30° C.
A further test concerns auto-proteolysis. Description: In vitro translation of wild-type and mutant Hh proteins (mapping of auto-proteolysis). The format is biochemical, Drosophila; zebrafish.
In a further test the test system is wg expression. Description: Embryonic induction of wg expression after heat shock of hshh / hshh H329A embryos (in situ hybridization).
Test [3] has as its system wg and dpp expression in imaginal discs. Nature of the test: Signaling in imaginal discs of thermally cycled larvae (wg-lacZ / dpp-lacZ, X-gal staining). Conditions: thermal cycling of larvae.
Excerpt: For studies of signaling in imaginal discs, a thermal cycler was utilized to subject larvae carrying heat shock-inducible hh constructs to successive rounds of heat shock and recovery. The effects of temperature cycling upon expression of dpp and wg in imaginal discs was examined by monitoring β-galactosidase expression from a reporter gene carrying dpp promoter sequences or from an enhancer detector P element inserted in the wg gene. In FIG. 7, X-gal staining was used to follow expression of wg FIG. 7 (A-C) or dpp FIG. 7 (D-L) in imaginal discs of late third-instar larvae that carry wg-lacZ or dpp-lacZ reporter genes.
Virgin female flies from the homozygous lines hshh (D. T. Chang et al., Development, 1994, in press), hshh H329A, and y^1 w^1118 were crossed to males from the homozygous BS3.0 line (bearing a P element dpp reporter construct on the 2nd chromosome, referred to as dpp-lacZ) (R. K. Blackman, et al., Development 111: 657, 1991) or the line y; Sco/CyO, enlacZ11::wg (bearing a wg reporter P element enhancer trap on a second chromosome balancer; called wg-lacZ) (J. A. Kassis, et al., Proc. Natl. Acad. Sci. U.S.A. 89; 1919, 1992). Progeny were grown at 25° C. in aerated 0.5-ml microcentrifuge tubes containing yeast paste until the late second instar or early third instar stage of larval development. […]

“Also recorded” adds a separate entry of the source.

Excerpt for wg expression: To ascertain the importance of auto-proteolysis for these functions, the H329A mutant gene under control of the hsp 70 promoter was introduced by P element-mediated transformation into the Drosophila germline. The hshh H329A construct was made identically to the hshh construct with the use of a hh ORF fragment containing the H329A mutation. Transgenic flies were generated from a y^1 w^1118 parental strain using standard methods of P element mediated transformation (A. C. Spradling and G. M. Rubin, Science 218: 341 1982). […] To assay for expansion of wg stripes, embryos collected at 4 to 6 hours after egg laying (AEL) at 25° C. were subjected to the following heat shock protocols prior to fixation. Embryos receiving single shocks (10 or 30 minutes at 37° C.) were allowed to recover for 1 hour at 25° C. Embryos receiving double shocks (two 10 minute or two 30 minute shocks at 37° C.) were allowed to recover 90 minutes after the first shock and 40 minutes after the second (Both recoveries were at 25° C. The double 30 minute protocol was as previously described, (S. Krauss, supra). In situ hybridizations were performed as described (D. Tautz, Chromosoma 98: 81, 1989) using a wg specific probe (D. T. Chang et al., supra). Embryos assayed for cuticle phenotype were heat shocked 6 to 8 hours AEL for 30 minutes at 37° C., allowed to develop at 25° C. for 36 hours and then processed and mounted as described (M. Ashburner, Drosophila: A Laboratory Manual, Cold Spring Harbor Laboratory Press, New York, 1989).

`CC1=C2C(=O)[C@H]3[C@@H](CC=C4C[C@@H](O)CC[C@@]43C)[C@@H]2CC[C@]12O[C@@H]1C[C@H](C)CN[C@H]1[C@H]2C` [jervine]: in the test with cholesterol biosynthesis (COS 7 cells, 24 hr), the “Accumulation of another radiolabeled sterol (tentatively zymosterol)” value was “another radiolabeled sterol was found to accumulate” and the Radiolabeled cholesterol levels result is “reduced”. For the same molecule, the “Cholesterol biosynthesis in cultured cells” value in the test on cholesterol biosynthesis (COS-7 cells) is listed as “inhibits cholesterol biosynthesis”.
For `CC(C)CCC[C@@H](C)[C@H]1CC[C@H]2[C@@H]3CC=C4C[C@@H](O)CC[C@]4(C)[C@H]3CC[C@]12C` [cholesterol], the “Stimulation of His6Hh-C autocleavage in vitro” value on His6Hh-C protein is recorded as “stimulates His2Hh-C autocleavage; also recorded: displayed stimulatory activity similar to that observed with lipids extracted from spot B”.

B1: C-terminal fragment: Drosophila hh 25 kD C-terminal fragment (protein)
chain: CFTPESTALLESGVRKPLGELSIGDRVLSMTANGQAVYSEVILFMDRNLEQMQNFVQLHTDGGAVLTVTPAHLVSVWQPESQKLTFVFADRIEEKNQVLVRDVETGELRPQRVVKVGSVRSKGVVAPLTREGTIVVNSVAASCYAVINSQSLAHWGLAPMRLLSTLEAWLPAKEQLHSSPKVVSSAQQQNGIHWYANALYKVKDYVLPQSWRHD
In the case of B1, the “Binding to heparin agarose” value in test [1] was “not bound effectively by heparin agarose”.

B2: UHA: twhh with H273A mutation that blocks auto-proteolysis (protein, UniProt Q90419 27-416, looked up, variant H273A)
Tiggy-winkle hedgehog protein: CGPGRGYGKRRHPKKLTPLAYKQFIPNVAEKTLGASGKYEGKITRNSERFKELIPNYNPDIIFKDEENTNADRLMTKRCKDKLNSLAISVMNHWPGVKLRVTEGWDEDGHHLEESLHYEGRAVDITTSDRDKSKYGMLSRLAVEAGFDWVYYESKAHIHCSVKAENSVAAKSGGCFPGSGTVTLGDGTRKPIKDLKVGDRVLAADEKGNVLISDFIMFIDHDPTTRRQFIVIETSEPFTKLTLTAAALVFVGNSSAASGITATFASNVKPGDTVLVWEDTCESLKSVTVKRIYTEEHEGSFAPVTAHGTIIVDQVLASCYAVIENHKWAHWAFAPVRLCHKLMTWLFPARESNVNFQEDGIHWYSNMLFHIGSWLLDRDSFHPLGILHLS
As for B2, in test [2], the “Ectopic activation (induction) of pax-2 in the developing eye” value was “only somewhat less active than C in inducing pax-2” and the “Repression of pax-6” value is given as “not able to repress pax6 efficiently”.

B3: U356HA: twhh with stop codon in place of residue 357 and the H273A mutation (protein, UniProt Q90419 27-416, looked up, variant H273A)
Tiggy-winkle hedgehog protein: B2 Tiggy-winkle hedgehog protein
modifications: truncated after residue 356
notes: twhh with stop codon in place of residue 357 and the H273A mutation
Consider B3, for which, in test [2], the “Repression of pax-6” value was “activities not significantly different from N”.

B4: H329A: Drosophila Hh with His-329 to alanine; in vitro translated full length and His6Hh-C25 context (protein)
chain: CGPGRGLGRHRARNLYPLVLKQTIPNLSEYTNSASGPLEGVIRRDSPKFKDLVPNYNRDILFRDEEGTGADRLMSKRCKEKLNVLAYSVMNEWPGIRLLVTESWDEDYHHGQESLHYEGRAVTIATSDRDQSKYGMLARLAVEAGFDWVSYVSRRHIYCSVKSDSSISSHVHGCFTPESTALLESGVRKPLGELSIGDRVLSMTANGQAVYSEVILFMDRNLEQMQNFVQLHTDGGAVLTVTPAALVSVWQPESQKLTFVFADRIEEKNQVLVRDVETGELRPQRVVKVGSVRSKGVVAPLTREGTIVVNSVAASCYAVINSQSLAHWGLAPMRLLSTLEAWLPAKEQLHSSPKVVSSAQQQNGIHWYANALYKVKDYVLPQSWRHD
In the case of B4, the “Cholesterol-stimulated autocleavage (cholesterol transfer)” value in the test on Hh autoprocessing (350 μM cholesterol/1 mM DTT) was “inactive”. In addition, the “DTT-stimulated autocleavage (thioester formation)” value in the test on Hh autoprocessing (50 mM DTT) is “inactive”. For the same molecule, the “Auto-proteolysis (processing) of in vitro translated protein” value with auto-proteolysis is recorded as “blocked or severely inhibited”.

B5: hshh H329A: heat shock-inducible hh with H329A mutation blocking auto-proteolysis (protein)
chain: B4 chain
For B5, the “Expansion of wg expression beyond wild-type controls, average number of cell diameters ± standard deviation” value is reported as 0.7 ± 0.5 cell diameters in the test with wg expression (minutes of heat shock: 10), 1.1 ± 0.4 (145) cell diameters in the test on wg expression (minutes of heat shock: 10/10), 0.9 ± 0.4 (111) cell diameters with wg expression (minutes of heat shock: 30) and 1.9 ± 0.5 (93) cell diameters with wg expression (minutes of heat shock: 30/30). Besides, the “Expansion of dpp expression in the eye-antennal disc” value in test [3] is recorded as “did not induce expansion of dpp expression”. The “wg and dpp expression patterns in the leg disc” value in test [3] is on record as “produced little if any detectable difference in these patterns of expression”.
